Normalised SPOT signal, Boehringer light units (BLU); mean over the file's lines of this peptide data for eleven molecules are collected here from publication PMC314469, “Protein Interaction Networks by Proteome Peptide Scanning” (PLoS Biology, 2004).

T1: Boi1 SH3 (BOI1_YEAST), P38041
T1 chain: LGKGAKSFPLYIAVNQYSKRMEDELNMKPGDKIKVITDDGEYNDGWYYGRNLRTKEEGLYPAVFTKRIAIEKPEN

T2: Boi2 SH3 (BOI2_YEAST), P39969
T2 chain: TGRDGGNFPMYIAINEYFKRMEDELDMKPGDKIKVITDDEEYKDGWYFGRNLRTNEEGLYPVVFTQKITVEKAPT

T3: Myo5 SH3 (MYO5_YEAST), Q04439
T3 chain: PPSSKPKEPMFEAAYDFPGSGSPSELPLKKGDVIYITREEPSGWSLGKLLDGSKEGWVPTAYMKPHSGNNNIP

T4: Rvs167 SH3 (RV167_YEAST), P39743
T4 chain: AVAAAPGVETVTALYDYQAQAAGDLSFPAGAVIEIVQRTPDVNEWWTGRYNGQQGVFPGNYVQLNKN

T5: Yfr024 SH3 (LSB3_YEAST), P43603
T5 chain: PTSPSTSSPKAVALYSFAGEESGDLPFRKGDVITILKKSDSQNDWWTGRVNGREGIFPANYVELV

T6: Yhr016c SH3 (YSC84_YEAST), P32793
T6 chain: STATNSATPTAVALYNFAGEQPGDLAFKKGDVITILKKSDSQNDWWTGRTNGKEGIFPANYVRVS

Sequence of Sho1 SH3 (SHO1_YEAST), P40073 (P40073 295-366): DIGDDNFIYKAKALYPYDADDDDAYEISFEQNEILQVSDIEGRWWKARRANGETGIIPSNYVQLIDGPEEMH

The first assay addresses T1, Boi1 SH3 (BOI1_YEAST), P38041. As to the kind of experiment: SPOT array.
Take KQLKKQGPKRPSSA [YKL032C 354-367]: the normalised SPOT signal, Boehringer light units (BLU); mean over the file's lines of this peptide stood at 767.
Still for that read-out and setting: the value for KQSKRARPSSPYTV [YOR153W 486-499] was 291; that for KRRSKSLPITPKSI [YIL045W 157-170] was 585; that for KQAKRAPPSSPYVV [YDR406W 496-509] was 470.
The same measure, in the same setting: in the case of KQRIRKIPGIPLMS [YDR339C 161-174] it was 800.
Regarding KQLMKNLPKIPLLN [YDR228C 355-368], the normalised SPOT signal, Boehringer light units (BLU); mean over the file's lines of this peptide turned out to be 594.
In turn, KRRSKSLPTTPGIR [YER054C 189-202] came in with a normalised SPOT signal, Boehringer light units (BLU); mean over the file's lines of this peptide of 310.
The same measure, in the same setting: in the case of KRKAKAPPPPPPPP [YDL146W 469-482] it was 1100; in that of KPAGRPIPPAPTHY [YGR058W 101-114], 90.4.
Still for that read-out and setting: in the case of KQKKKPTPTRPYNY [YKL089W 339-352] it was 33.6; in that of KNPTKSPPPPPSPS [YLR337C 698-711], 36.2.

A further assay has as its target T2, Boi2 SH3 (BOI2_YEAST), P39969. As to the kind of experiment: SPOT array.
In the case of KQLKKQGPKRPSSA [YKL032C 354-367], the normalised SPOT signal, Boehringer light units (BLU); mean over the file's lines of this peptide was 28.7.
Molecule KQSKRARPSSPYTV [YOR153W 486-499] displayed a normalised SPOT signal, Boehringer light units (BLU); mean over the file's lines of this peptide of 11.9.
On to KRRSKSLPITPKSI [YIL045W 157-170], for which the normalised SPOT signal, Boehringer light units (BLU); mean over the file's lines of this peptide is 6.2.
On to KQAKRAPPSSPYVV [YDR406W 496-509], for which the normalised SPOT signal, Boehringer light units (BLU); mean over the file's lines of this peptide came to 2.9.
Still for that read-out and setting: the value for KQRIRKIPGIPLMS [YDR339C 161-174] was 108; that for KQLMKNLPKIPLLN [YDR228C 355-368] was 9.8; that for KRRSKSLPTTPGIR [YER054C 189-202] was 0.8.
KRKAKAPPPPPPPP [YDL146W 469-482] showed a normalised SPOT signal, Boehringer light units (BLU); mean over the file's lines of this peptide of 22.4.
On to KPAGRPIPPAPTHY [YGR058W 101-114], for which the normalised SPOT signal, Boehringer light units (BLU); mean over the file's lines of this peptide turned out to be 0.
Still for that read-out and setting: the value for KQKKKPTPTRPYNY [YKL089W 339-352] was 26.3.
Same read-out and setting: the value for KNPTKSPPPPPSPS [YLR337C 698-711] was 16.7.

Another assay has as its target T3, Myo5 SH3 (MYO5_YEAST), Q04439. As to the kind of experiment: SPOT array.
In turn, KQLKKQGPKRPSSA [YKL032C 354-367] registered a normalised SPOT signal, Boehringer light units (BLU); mean over the file's lines of this peptide of 468.
The same measure, in the same setting: in the case of KQSKRARPSSPYTV [YOR153W 486-499] it was 271; in that of KRRSKSLPITPKSI [YIL045W 157-170], 921; in that of KQAKRAPPSSPYVV [YDR406W 496-509], 295.
KQRIRKIPGIPLMS [YDR339C 161-174] showed a normalised SPOT signal, Boehringer light units (BLU); mean over the file's lines of this peptide of 622.
The same measure, in the same setting: in the case of KQLMKNLPKIPLLN [YDR228C 355-368] it was 580; in that of KRRSKSLPTTPGIR [YER054C 189-202], 592; in that of KRKAKAPPPPPPPP [YDL146W 469-482], 4030.
Still for that read-out and setting: in the case of KPAGRPIPPAPTHY [YGR058W 101-114] it was 189; in that of KQKKKPTPTRPYNY [YKL089W 339-352], 516.
In the case of KNPTKSPPPPPSPS [YLR337C 698-711], the normalised SPOT signal, Boehringer light units (BLU); mean over the file's lines of this peptide worked out at 27800.

In the next assay the target is T4, Rvs167 SH3 (RV167_YEAST), P39743. As to the kind of experiment: SPOT array.
For the molecule KQLKKQGPKRPSSA [YKL032C 354-367], the normalised SPOT signal, Boehringer light units (BLU); mean over the file's lines of this peptide was 80.4.
With KQSKRARPSSPYTV [YOR153W 486-499], the normalised SPOT signal, Boehringer light units (BLU); mean over the file's lines of this peptide came out at 102.
Same read-out and setting: the value for KRRSKSLPITPKSI [YIL045W 157-170] was 125; that for KQAKRAPPSSPYVV [YDR406W 496-509] was 19.4.
Same read-out and setting: the value for KQRIRKIPGIPLMS [YDR339C 161-174] was 3830; that for KQLMKNLPKIPLLN [YDR228C 355-368] was 130; that for KRRSKSLPTTPGIR [YER054C 189-202] was 17.6.
On the same count and under the same terms, in the case of KRKAKAPPPPPPPP [YDL146W 469-482] it was 31.2.
KPAGRPIPPAPTHY [YGR058W 101-114] showed a normalised SPOT signal, Boehringer light units (BLU); mean over the file's lines of this peptide of 2260.
Same read-out and setting: the value for KQKKKPTPTRPYNY [YKL089W 339-352] was 31.6; that for KNPTKSPPPPPSPS [YLR337C 698-711] was 41.

A further assay concerns the target Sho1 SH3 (SHO1_YEAST), P40073. As to the kind of experiment: SPOT array.
Turning to KQLKKQGPKRPSSA [YKL032C 354-367], the normalised SPOT signal, Boehringer light units (BLU); mean over the file's lines of this peptide is 151.
For the molecule KQSKRARPSSPYTV [YOR153W 486-499], the normalised SPOT signal, Boehringer light units (BLU); mean over the file's lines of this peptide was 99.9.
Still for that read-out and setting: the value for KRRSKSLPITPKSI [YIL045W 157-170] was 19400.
Still for that read-out and setting: in the case of KQAKRAPPSSPYVV [YDR406W 496-509] it was 127; in that of KQRIRKIPGIPLMS [YDR339C 161-174], 179; in that of KQLMKNLPKIPLLN [YDR228C 355-368], 36400.
Still for that read-out and setting: the value for KRRSKSLPTTPGIR [YER054C 189-202] was 29800; that for KRKAKAPPPPPPPP [YDL146W 469-482] was 17.5.
For the molecule KPAGRPIPPAPTHY [YGR058W 101-114], the normalised SPOT signal, Boehringer light units (BLU); mean over the file's lines of this peptide is 115.
On the same count and under the same terms, in the case of KQKKKPTPTRPYNY [YKL089W 339-352] it was 97.1; in that of KNPTKSPPPPPSPS [YLR337C 698-711], 0.

In the next assay the target is T5, Yfr024 SH3 (LSB3_YEAST), P43603. As to the kind of experiment: SPOT array.
KQLKKQGPKRPSSA [YKL032C 354-367] returned a normalised SPOT signal, Boehringer light units (BLU); mean over the file's lines of this peptide of 751.
The same measure, in the same setting: the value for KQSKRARPSSPYTV [YOR153W 486-499] was 462; that for KRRSKSLPITPKSI [YIL045W 157-170] was 559; that for KQAKRAPPSSPYVV [YDR406W 496-509] was 152.
Still for that read-out and setting: in the case of KQRIRKIPGIPLMS [YDR339C 161-174] it was 12300.
For KQLMKNLPKIPLLN [YDR228C 355-368], the normalised SPOT signal, Boehringer light units (BLU); mean over the file's lines of this peptide stood at 794.
Molecule KRRSKSLPTTPGIR [YER054C 189-202] had a normalised SPOT signal, Boehringer light units (BLU); mean over the file's lines of this peptide of 562.
The same measure, in the same setting: in the case of KRKAKAPPPPPPPP [YDL146W 469-482] it was 19.3; in that of KPAGRPIPPAPTHY [YGR058W 101-114], 4480.
The molecule KQKKKPTPTRPYNY [YKL089W 339-352] returned a normalised SPOT signal, Boehringer light units (BLU); mean over the file's lines of this peptide of 680.
The same measure, in the same setting: in the case of KNPTKSPPPPPSPS [YLR337C 698-711] it was 74.8.

A further assay addresses T6, Yhr016c SH3 (YSC84_YEAST), P32793. As to the kind of experiment: SPOT array.
In turn, KQLKKQGPKRPSSA [YKL032C 354-367] registered a normalised SPOT signal, Boehringer light units (BLU); mean over the file's lines of this peptide of 109.
On the same count and under the same terms, in the case of KQSKRARPSSPYTV [YOR153W 486-499] it was 66.6; in that of KRRSKSLPITPKSI [YIL045W 157-170], 58.1.
The same measure, in the same setting: in the case of KQAKRAPPSSPYVV [YDR406W 496-509] it was 20.9; in that of KQRIRKIPGIPLMS [YDR339C 161-174], 1120; in that of KQLMKNLPKIPLLN [YDR228C 355-368], 95.2.
The same measure, in the same setting: in the case of KRRSKSLPTTPGIR [YER054C 189-202] it was 34.5; in that of KRKAKAPPPPPPPP [YDL146W 469-482], 11.5.
The molecule KPAGRPIPPAPTHY [YGR058W 101-114] returned a normalised SPOT signal, Boehringer light units (BLU); mean over the file's lines of this peptide of 2860.
On the same count and under the same terms, the value for KQKKKPTPTRPYNY [YKL089W 339-352] was 44.3.
For the molecule KNPTKSPPPPPSPS [YLR337C 698-711], the normalised SPOT signal, Boehringer light units (BLU); mean over the file's lines of this peptide stood at 11.2.
